Measurements as given in the domain aggregation screens of Martell et al. (2025).

Experiment: soluble fraction after stress (log2 fold change); higher = more stays soluble; pooled small domains, quantitative proteomics
Conditions: stress: 75 degC
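Also: 20 min heating vs room temperature control held 20 min.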

Sequence	soluble fraction (log2)
HMQETMTNDEVISLTKAGLSSSIIIGKIRSSATNFDLSTDSLIKLKQAGVSDETVAAMLEAKS	0.0249
HMQGAARGMLFAQAQRWMTKFRIDPQQADRITQAALDPAQTDAILREVRRGYGPSAERALRGIIRRARRA	-1.94
HMQGEAMQETVKKLDAFLQDNSVSMSALARALGVSPSLISQFRSGSYKGDSQAIAAKINSYIDNHNKKSK	-0.0127
HMQGEKDDLWREVLDNPDAWWDNRERKNAPGGNPRYPDFKHKDSQTPLWIESRDTPQWAIDALL	0.259
HMQGNGKVATELLKDIIASDNLYINAMRMLVMHYNSKGTNQVEMVKLLHNILDLVPDDEYANEILKSAKKA	-0.0872
HMQGPDPYAVLGIDRHADERAIKRAYRKLISEHHPDRLGDLPEDMRKRAESRASEINAAYDRIKEARGF	0.0522
HMQGQVLQETARKARSQLDSEIPGFNDALYQNLIKSSENYGYKAEEVAQWVDPRAIKVLNDAYQFQQLKAG	-0.172
HMQGTTTELLIQKSALYEELNDPEKALNAMFDAFEMDSLNVNVLHRIVSLLLDKEENEKAILYNQLIIDH	0.0862
HMQHQSGLKSGEFEAISQQLQALLKENPLSLQEIKDKMQVTENHLIKVVSYLVSEEIIRQENGYLK	-0.976
HMQIAGLDDIDNRIIDLLLKNGRASYSEIGAAVGLSRTAAKNRIRALEASGIIRGYQAILDPQA	-0.708
HMQIDDSVELSAIVEKLLAANPEQVEQLKNGKTKVLGYFVGLAMKETQGRANPQKVNELIQTHL	-0.519
HMQIDRLFDIVYTLLRKKSATAAELAERFGVSKRTILRDIETLSVAGIPILTSPGKGGGVSISSSF	-0.892
HMQIIETTVGRVLFNEKVPEAAGYINEVLTKKSLRDIIHGILKKTSVPETAAFLDEIKSLGYNFAF	0.0925
HMQIIEVPYSEFLKKLESGQISEVSRDSYQIVFTDRSQPPIIYKTGLMEDPGLVDKMQEAGVTFTSP	0.256
HMQIKNVDYGTFLDMLDEKNVKEVEIEDEQIVFTDNADPTGYYTTGRMEDPDLVDRLHNSGATFSAI	0.134
HMQILLASHAELAKGILSAVELIAGTQQNLKAYSAYTEAVDVHFKDQMLQDLNKMDPEDEVIL	0.137
HMQINLSEWVLAAREYAGPEMTQEKLAEHLGRTKANVSAMENGRSKPSFEQMMEIHRVTGYPLPYQ	-0.303
HMQISDAGALLDAVRRVLAENPAQVEQFRAGKEKVMGFLVGQVMRATGGKANPQMLNDVLREELS	-0.196
HMQISDEGELSGIVRKIIDANPQSVADYKAGKKKAIGFLVGQIMIETKGRANPASVNELLIKKLE	-0.434
HMQISDNTILEDAVSRIIDENPKSVSDYFQGKEAVVGFFIGQIMRETKGTANPKIAREIVISHLEAI	-0.576
HMQISGIHLYERRITKDDEWAERKLSEISLAGSLVILILRNEHVVIPNGETVLKENDLLYISD	-3.66
HMQISGSEELEKIVQTVLEKNTDVVEEYKSGKTKVFAFLMGQVMKESRGKANPRLAKDILEKFLA	-0.429
HMQITAPVQKIDGVEYYMHKVEQGQTLYSISKLYNVGVKEIQKANQLGTEGIQLGQVLKVRKGG	-0.2
HMQIYLTPEQFKIIDFMEQMGKITVKDVMDILNIPKRTAQLHLQKLKTLKMIAQTGKGPSSAYLL	-1.11
HMQKDAYVPDIISKLKSSRMIVVEGTIYPLLTRLKNTGLLSYRWEESLQGPPRKYYSITEQG	0.268
HMQKDYKTRLQEYYAKVGKKVNYMDSSTGPDHDKKFQTQVFLDKEIIGVGEGKSKKSSQQEAAKQALEKI	0.267

Sequence	soluble fraction (log2)
HMQKFINQEHEKAYNLMLEKDYQQALKIFDDLIYLFPNEANLLSDRGVIFIHLNKKEAALQDFDQAVF	-1.97
HMQKIEKVDYGTFLKMIENGEIDQVNLTEKKISFTTDKDAETVYETGRVEDPNIVDRLYQADVEFTQEI	0.598
HMQKIENYDQFVQAFKRLSGLDLKLYKENQMKRRINNFINNHGFKENYDQFFQAITGNKELYNAFFKHLTI	-0.527
HMQKKYLAVKEYLLEQINSGAYQPDEPIPPEREMAAMLGVNRMTLRRAVEELMYEGLLIRKKGSGTFLTK	-2.03
HMQKLSPKQRRGNIIELIKENPTITAKNISTIFNLNQRTIERDLAKLTEEGYIKYEGSSKDGKWVFL	-0.134
HMQKNKSVLFKDIVIAFNQNPKKLFNYKQLAADLDIHSEAERMLISQLLNDLKDQNFLEEVERGKYKLKL	-0.766
HMQKPIKPVKMHTVGPKENLSSIGRMYEVNGRVLANYNNIDYDKGLTIGQVLKIPPKGTTLEQVT	0.853
HMQKTIDWSQVDKEQYLSAMERSPVNDLEIKAILAKALTSDINNRELFMKGLDHSYYFEGYQLFKSE	-0.526
HMQKTQVVEVAGKSYQLTKMDARTGSYVAFKVAGVLAPSGGKTAEMAAALMGMPRKDFDELQSLLLRTV	0.025
HMQKYSTIIGVIELRQSGIGYRTTKKRYNIGNSTVTLIMNRFHELGLSLEELKAMPPKKVEEAFYPPE	-3.22
HMQLASILDDIPGIGKKRKENLLTHFGSFSKIQSADIDALAEVPGISRDLAETIHTYLKTHQ	-0.0246
HMQLDLSDPSKNKLDSIVSLPIKSLKAVEANGEILFMSENGRFVLRGQLYDIWYKDTLDTSAQIQDAATRI	0.331
HMQLDLTSTLDHMYKQMRNDHPRALLMAVEKEMVLRALKETDGNQLRASDILGISRSTLRKRIEEFDINS	-1.24
HMQLEPLITSVIPVNFAKAGEVATTIKGKEVGLVSDRGSITAESRTNVLIVKDIKKNVDDISAMVKRLD	-0.00331
HMQLGEEAGDELVAIVRSVINDNDKALADYLAGKSSALKFLLGQVMRQTKGRADHALVQSLLEAELEAL	-0.0341
HMQLHDTMKRVYEALDISEQKLAESLGLKLSTIINWQKNGISKIGINKLNQTFGLDMQWILTGQGEPFI	-0.0293
HMQLLDIGSAVRIIREPYFGRLGTVVELPPELMEIESGTHARVLKAKLDDGTVAVVPRANVEIIVE	-0.785
HMQLNNTDELEKIILKILENNPKQVDQFLAGKQKLLGFFVGQAMRATSGKANPKTVNDLLEKFLSK	0.027
HMQLPDLDEIRQMRKRLDLSQRELAALAGVSQSLIAKIEKGSIDPSYDNVRKIFNAFENILKKRALE	-0.119
HMQLPIGDVKLSVEHLSSGTALQDISFEVHRGEIFGFLGLVGAGRSETAETIFGLREKTDGKISIDGTVL	-0.0579
HMQLPTNAAAILRYLSSGAVKGVGSATAVRIVEKFGEETLNILEQDPLRLAEIRGISRDKAKKIGEDFASQ	-0.322
HMQLSMLPYGFARRHGVLLVEQDEQPTLIHRAGITATVIAEVQRVAGQIDAWRLVDDARFDQQLAEVYRD	-1.33
HMQLTPAQHAILAYAIEHTGGKIEWFPDNIKGGARTKVLEGLFNKALITRDSTDWFVAAEGYDALGR	-0.949
HMQLYSLEVLSKKKVDLIENNKNLINLYFNKENGEYSYRLIFKNRKELYQVKDTLDNSSDVVSIKLDL	-2.27
HMQMGLNEAYRVLHVSPDAPWREVQSAYKERMAKSHPDKVSHLGEELQEKAKELTVEINKAYNTIKRYKK	0.47
HMQMKDRILRIMEHEGISPSKFAEEIGIQRSAMSHIISGRNNPSLDVLTKIMQRFTYVDTDWLLFGKGSMV	-1.99

Sequence	soluble fraction (log2)
HMQMPDLTGKPRAEAVTTLAALGFTDVKFLDASAGDEPLDYVADQVVRTSPEAGAALASGQQITIYLAT	-0.203
HMQMSDTSMIRDLVLQVLAENPQSIEDFKNGKDRAVGFLVGMVMKKSQGKANPQITNQMIVEELKK	-0.228
HMQMSERENTILLTKRYIERGEYERAMNLLDSLLIKNALDEEALAMIDEIIALKAGASLQDFPRY	-0.797
HMQMTTPQMVPLFTDLSVDDSASIIKDLERQAVPYQIKSDGAIIMVPKDKVTRLRMKLAESGLPK	0.488
HMQNDDLTKLDGIGPYIEQRLNDIGIYNYEQLSKLNTEDIQKITELIDFFPGRIERDNWVSQAQLLKI	-0.515
HMQNDILIQADEIVGDYFDMDKEALKMNKQAVIADIEKRQATAQGDEASALHYAKQKVENEFEDDGSQKD	0.109
HMQNKFLDIVGEIEVKAVDYYLLKDTSGLVIKFPKNLVFANGLKIADNKIGLTVSLYGAWVHEET	-1.08
HMQNKYIIKQGNSGELVEVLQELLNLKQDGVFGPQTKKAVIAFQQKHKLVADGIVGPMSWRKLNFNPEELF	-2.36
HMQNLISSDEAKNIALQHANLTDNQVTFIKVSKDYDDGIHIYEVEFHYNNREYNYDINAINGTILSYEQ	-1.34
HMQNNKITIYISGAVNRPGIVTIESDKRLYDAVELLGGTTKEADLNGVNLSVRLEDEQHYIIPKIGEA	-0.432
HMQNNWFYEENGQRKGPVSENEMVQFIKSSVISHGTSVWKQGFPDWLKVENTDLRVHLDNSAP	0.105
HMQNREQNILDGKSILDKELKRVGLLNQSAAIMAQEMKFNSQDDLFAALGSGATRIGQIINHLQKQS	-0.00272
HMQNSMTTTPDVVGKTGTFAEQMLKAANLNVQFAGDSSGKVVAQDVEAGTSAAYGTIITLTMDS	0.693
HMQNVKIKAEVKGEVISPGVYELDEESRIQDLIDASGGFSDKAYYDNINLSMKLKDEMVLVVYDKDKI	-0.271
HMQPADYSDLYAAAKSAGEADMRAAFALTDKQERTAAVNAARETIKAALSEEQLADANLGSALKKLEAGV	-0.122
HMQPASPELNNQEKKVLQALPENEVIHIDELSDKIQIPVGELLTVLLSLEMKETVIQEPGKFFRRR	-1.29
HMQPDFLDAKASLALLGVRPQTLYAYVSRGAIRSVPQPGTKAHLYSRSDIERVMARAAARAG	-1.34
HMQPDYRVLYSNFSDKDGGAIVAALEKMNVPYKFSEGGSAILVPAGQVHQARLKLAADGLPK	0.0648
HMQPLGHDLTERELDVLALMVTGMNNSEIADKLVVSRSTIKYHVSNILSKLQATSRTEAVAYALQQNLVH	-2.51
HMQPQIDFEIDVEVRASSLRIVAAPNSDVLVATVGRGEHVVQLTYPKDGWVMIRTADDRVGFVPESLLL	-2
HMQPQYSVLFSNIEEKDGGSIITLLQQGNVPYKVENGGTTILVPANRANELRLTLAAQGLPK	0.449
HMQPVLSDAEVNDLKNIAGGERGYNQLMDWAGNNLTAQDAKSYDDVLATGNKAAISFAIKALMGQYEDAN	-0.0478
HMQQEAVNLVQSRGQQAIEPVHIMQGVMKVGENVTNFIFQKLGMNGQQVALVVDKQIDSLPKVSGGEPYL	0.124
HMQQEAVSGKLLQLDLAKKEGRLSTDLGREVLFHIPKPELFVHLSVGQRIIIKLDAGQEAVGV	-0.178
HMQQELDAFKLLITVSGVGPKAAMAVLSVLPPDRLSIAVSSGDVKSIQSAQGVGKKTAERIVLELKDKM	-0.906
